Assay results as given in PMC9104804, “Fine-Tuning Modulation of Oxidation-Mediated Posttranslational Control of Bradyrhizobium diazoefficiens FixK2 Transcription Factor”.
Substitutions are numbered along the chain they refer to. Blank lines part the entries; values can stand above or below the molecule they belong to.

Key:
[1] = biological target: C183S FixK2 protein variant of Bradyrhizobium diazoefficiens (Bradyrhizobium diazoefficiens) (UniProt Q89RK6); assay: SEC; analytical SEC, Superdex 200 10/300 GL, room temperature, 40 mM Tris-HCl pH 7.0, 150 mM KCl, 0.1 mM EDTA; 100 µL samples loaded at 2.5-30 µM (native) or 2.5-40 µM (C183S, C183D); concentrations refer to the dimeric form; monomer-dimer equilibrium
[2] = biological target: T1, C183D FixK2 C183D (Bradyrhizobium diazoefficiens 110spc4) (UniProt O69245); assay: EMSA; conditions: EMSA: 40 mM Tris-HCl pH 8, 10 mM MgCl2, 0.1 mM EDTA, 0.1 mM DTT, 150 mM KCl, 0.4 mM K3PO4, room temperature, 30 min; SPR: 40 mM Tris-HCl pH 7.0, 150 mM KCl …; scale: fold higher protein concentration than C183S for similar shift
T1 sequence: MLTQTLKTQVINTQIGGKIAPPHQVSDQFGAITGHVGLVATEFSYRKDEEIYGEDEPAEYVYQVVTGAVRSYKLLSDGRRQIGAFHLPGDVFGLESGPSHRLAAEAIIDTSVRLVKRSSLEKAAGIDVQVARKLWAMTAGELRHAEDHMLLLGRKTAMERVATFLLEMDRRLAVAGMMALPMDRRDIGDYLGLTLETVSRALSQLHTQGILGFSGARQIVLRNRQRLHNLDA

[3] = biological target: T2, C183S FixK2 C183S (Bradyrhizobium diazoefficiens 110spc4) (UniProt O69245); assay: EMSA; conditions: EMSA: 40 mM Tris-HCl pH 8, 10 mM MgCl2, 0.1 mM EDTA, 0.1 mM DTT, 150 mM KCl, 0.4 mM K3PO4, room temperature, 30 min; SPR: 40 mM Tris-HCl pH 7.0, 150 mM KCl …
T2 sequence: T1 sequence with D183S

[4] = biological target: C183D FixK2 protein variant of Bradyrhizobium diazoefficiens (Bradyrhizobium diazoefficiens) (UniProt Q89RK6); assay: SEC; analytical SEC, Superdex 200 10/300 GL, room temperature, 40 mM Tris-HCl pH 7.0, 150 mM KCl, 0.1 mM EDTA; 100 µL samples loaded at 2.5-30 µM (native) or 2.5-40 µM (C183S, C183D); concentrations refer to the dimeric form; monomer-dimer equilibrium
[5] = biological target: FixK2 protein (native, wild type) of Bradyrhizobium diazoefficiens (Bradyrhizobium diazoefficiens) (UniProt Q89RK6); assay: as above
C183S FixK2 = biological target: T3, C183S FixK2 (Bradyrhizobium diazoefficiens 110spc4, UniProt O69245 1-232, C183S); assay: SPR; sensorgram at 250 nM; nanomolar affinity only cited from earlier study; EMSA: 40 mM Tris-HCl pH 8, 10 mM MgCl2, 0.1 mM EDTA, 0.1 mM DTT, 150 mM KCl, 0.4 mM K3PO4, room temperature, 30 min; SPR: 40 mM Tris-HCl pH 7.0, 150 mM KCl, 0.1 mM EDTA, 0.005% Tween 20, 25 °C; conditions: protein: recombinant; tags: untagged after cleavage of C-terminal Mxe GyrA intein-CBD (IMPACT, pTXB1); chain copies: 2; label: biotin; blunt
T3 sequence: T1 sequence with D183S

stoichiometry N [1]: 2
Molecule: C183S FixK2 protein variant of Bradyrhizobium diazoefficiens (from UniProt Q89RK6 4-235) (natural protein)

Molecule: fixNOQP promoter 90-bp PCR fragment
binding signal [2]: 32

Molecule: AAGAACACAGCGCCAGAAACCACATTCACCCTCGCGGGGAATTGATTGAAATCAAGATAGGTGGATTTCTGTTAATGTGAGGCTTTCGCG (double strand) [fixNOQP promoter 90-bp PCR fragment]
binding signal [2]: 32
binding [3]: binds

stoichiometry N [4]: 2
Molecule: C183D FixK2 protein variant of Bradyrhizobium diazoefficiens (from UniProt Q89RK6 4-235) (natural protein)

stoichiometry N [5]: 2
Molecule: FixK2 protein (native, wild type) of Bradyrhizobium diazoefficiens (from UniProt Q89RK6 4-235) (natural protein)

B1: fixN_3 FixK2 box duplex (SPR) (dsDNA)
DNA 1: CCACCTATCTTGATTTCAATCAATTCCCCG
DNA 2: CGGGGAATTGATTGAAATCAAGATAGGTGG
modifications: 5'-biotin on reverse strand (S47)
binding result (C183S FixK2): binds
